T1: MPP7, Q5T2T1
T1 sequence (Q5T2T1 134-230, limits assumed, looked up): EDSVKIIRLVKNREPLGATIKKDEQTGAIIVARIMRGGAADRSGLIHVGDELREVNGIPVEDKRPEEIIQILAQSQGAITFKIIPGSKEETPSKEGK

T2: SIPA1L2, Q9P2F8
T2 sequence (Q9P2F8 945-1036, limits assumed, looked up): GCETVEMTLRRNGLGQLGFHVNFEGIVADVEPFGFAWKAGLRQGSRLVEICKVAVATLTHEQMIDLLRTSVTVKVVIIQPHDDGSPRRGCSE


How the values were obtained:
MPP7, Q5T2T1 = target: T1, MPP7, Q5T2T1; assay: holdup assay; design: key: below the threshold = too weak to quantify, mostly under pKd 3.1 to 4
SIPA1L2, Q9P2F8 = target: T2, SIPA1L2, Q9P2F8; assay: holdup assay; design: key: below the threshold = too weak to quantify, mostly under pKd 3.1 to 4
[1] = plain residues with an end cap or a label only (N-terminal biotin on a linker: ado-ado)
[2] = modified: phospho on T at position -1 from the C-terminal residue
[3] = modified: phospho on T at position -2 from the C-terminal residue

Binder	pKd (MPP7, Q5T2T1; [1])	pKd (SIPA1L2, Q9P2F8; [1])	further results
PDSNPEESSV [SEMA4C, Q9C0C4]	below the threshold	below the threshold	–
SSGSTSSSRI [ADGRG1, Q9Y653]	below the threshold	below the threshold	–
PKLMGVETVV [DUSP10, Q9Y6W6]	below the threshold	below the threshold	–
GQSVDLVFPV [AKIP1, Q9NQ31]	below the threshold	below the threshold	–
DQPLEKSTKL [AKAP10, O43572]	below the threshold	below the threshold	–
ALPLPQSSTC [IGF1R, P08069]	below the threshold	below the threshold	–
NRVDSKETEC [ADAM17, P78536]	3.65	below the threshold	–
EEDTAEKDEL [HSPA5, P11021]	below the threshold	below the threshold	–
SMLNRRTTPV [CACNG4, Q9UBN1]	below the threshold	below the threshold	–
PELESKESVL [SLC1A4, P43007]	below the threshold	below the threshold	–
AEDEEIQTKM [UNC93A, Q86WB7]	below the threshold	below the threshold	–
RQSILFSTEV [BCR, P11274]	below the threshold	below the threshold	–
QYPGSPDSWV [PKP4, Q99569]	below the threshold	below the threshold	–
SRPTKGPTLL [PLEKHH2, Q8IVE3]	below the threshold	below the threshold	–
PLDSQQHTEV [FAT1, Q14517]	below the threshold	below the threshold	–
IPGKEFDTPL [PLCB1, Q9NQ66]	below the threshold	below the threshold	–
KSTTRSSSSC [NDE1, Q9NXR1;Q9NXR1-2]	below the threshold	below the threshold	–
LEPAVRSSEL [SH2D3C, Q8N5H7]	below the threshold	below the threshold	–
RRVRKLPSTTL [RPS6KA1_-1P, Q15418]	–	–	pKd (MPP7, Q5T2T1; [2]): 3.35; pKd (SIPA1L2, Q9P2F8; [2]): below the threshold
RTQSSDSAYV [GJD2, Q9UKL4]	below the threshold	below the threshold	–
HLRQQGSVEV [EPHB6, O15197]	below the threshold	below the threshold	–
VRPGVKESLV [SCN4A, P35499]	below the threshold	below the threshold	–
RDFDYIADWC [PKN2, Q16513]	below the threshold	below the threshold	–
QFTLRHWLKV [SLC6A3, Q01959]	below the threshold	3.89	–
DSATVRTYSC [PPFIA1, Q13136]	3.92	below the threshold	–
RELVMRVTTV [MARCHF4, Q9P2E8]	below the threshold	below the threshold	–
NPETRDETQL [KCNT1, Q5JUK3]	below the threshold	below the threshold	–

Binder	pKd (MPP7, Q5T2T1; [1])	pKd (SIPA1L2, Q9P2F8; [1])	further results
QLAEIAESGL [ITK, Q08881]	below the threshold	3.67	–
LGHTPFVDEL [UQCRC2, P22695]	below the threshold	below the threshold	–
RRVRKLPSTTL [RPS6KA1_-2P, Q15418]	–	–	pKd (MPP7, Q5T2T1; [3]): below the threshold; pKd (SIPA1L2, Q9P2F8; [3]): below the threshold
RRLQGTSSMV [GOLT1A, Q6ZVE7]	below the threshold	below the threshold	–
NLQEHSTTSV [RSBN1, Q5VWQ0]	below the threshold	below the threshold	–
LTAQEQPVYI [APBA1, Q02410]	below the threshold	below the threshold	–
ASGLDKRDYV [CLDN9, O95484]	below the threshold	below the threshold	–
FTLPAESSEI [PLEKHG7, Q6ZR37]	below the threshold	below the threshold	–
GQETPLNTFC [MAP7D2, Q96T17]	below the threshold	below the threshold	–
PASAKGPLGV [CLDN19, Q8N6F1]	below the threshold	below the threshold	–
PEEGKKQSQC [GAGE12J, A6NER3]	below the threshold	below the threshold	–
QNRIITKTDV [SMCHD1, A6NHR9]	below the threshold	below the threshold	–
SVISRREWYV [NECTIN3, Q9NQS3]	4.93	below the threshold	–
RPGFASESKV [ADRB1, P08588]	below the threshold	below the threshold	–
LDKESFLTWL [YAP1, P46937]	3.72	below the threshold	–
DFRHKSSFVI [JAM3, Q9BX67]	3.79	below the threshold	–
VGIERETDVL [EZH1, Q92800]	below the threshold	below the threshold	–
TGPWKNETTV [ADGRA1, Q86SQ6]	below the threshold	below the threshold	–
EGGKKRESEA [APPL1, Q9UKG1]	below the threshold	below the threshold	–
DHLGGGGESM [TNRC6A, Q8NDV7]	below the threshold	below the threshold	–
LSEFKAMDSF [CTNNA2, P26232]	below the threshold	below the threshold	–
YPKQMPLSQV [FZD8, Q9H461]	below the threshold	below the threshold	–
TGLWKSETTV [ADGRA2, Q96PE1]	below the threshold	below the threshold	–
REKKFFCTIL [GNG4, P50150]	3.49	4.01	–
EWTDERQSKV [GAB3, Q8WWW8]	below the threshold	below the threshold	–
GDGLDDEIAV [NOS1AP, O75052]	below the threshold	below the threshold	–
